T1: HMG1 purified from calf (bovine) thymus (bovine, UniProt P10103 2-215)
T1 construct: also called Calf thymus HMGB1; thymus HMG1
T1 sequence (looked up): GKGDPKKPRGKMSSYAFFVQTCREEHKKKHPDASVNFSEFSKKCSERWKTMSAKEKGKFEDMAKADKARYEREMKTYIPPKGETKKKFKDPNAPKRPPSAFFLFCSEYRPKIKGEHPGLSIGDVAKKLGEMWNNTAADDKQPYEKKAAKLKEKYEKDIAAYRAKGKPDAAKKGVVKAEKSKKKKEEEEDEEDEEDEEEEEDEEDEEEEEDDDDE

T2: HMG1 B Box peptide amino acids 91-169
T2 construct: also called HMG1 peptide 91-169
T2 peptide: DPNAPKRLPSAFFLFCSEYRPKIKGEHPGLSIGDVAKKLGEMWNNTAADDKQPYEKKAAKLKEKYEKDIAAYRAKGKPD

T3: HMG2 coated on ELISA plates (Bos taurus (Bovine), UniProt P40673 2-209)
T3 construct: also called HMGB2; HMBG2
T3 sequence: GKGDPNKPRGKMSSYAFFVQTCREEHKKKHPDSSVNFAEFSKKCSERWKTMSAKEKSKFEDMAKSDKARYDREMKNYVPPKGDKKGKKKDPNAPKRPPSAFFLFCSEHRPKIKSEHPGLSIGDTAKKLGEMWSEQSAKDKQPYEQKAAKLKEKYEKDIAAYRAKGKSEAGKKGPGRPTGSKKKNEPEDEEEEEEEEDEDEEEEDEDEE

T4: HMG1 B Box peptide amino acids 150-183
T4 peptide: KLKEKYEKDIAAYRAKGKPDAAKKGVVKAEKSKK


Legend:
[1] = biological target: T1, HMG1 purified from calf (bovine) thymus; test: direct ELISA, calf thymus HMGB1 coated at 5 ug/mL, antibody at 10 ug/mL, anti-human kappa/lambda-HRP, OD 490
Procedure: (§1) Binding to HMG1 vs. HMG2: Ultra high-binding ELISA plates (ThermoLab systems, #3855) were coated with either 5 ug/mL of Calf thymus HMGB1 or HMBG2 diluted in 10 mM Phosphate buffered saline (PBS), pH 7.2 and incubate overnight at 4 degrees. The plates were washed twice with Ca and Mg free PBS and 100 microliters of anti-HMGB1 antibody diluted in 10 mM PBS, pH 7.2+1% bovine serum albumin (BSA) to a final concentration of 10 ug/mL was added to each well and the plates were incubated 1 hour at room temperature. The wells were washed three times with 100 μl of PBS, pH 7.2. HRP labeled goat-anti-human IgG Kappa-chain (KPL, #14-10-10) and goat-anti-human IgG Lambda-chain (KPL, #14-10-11) were diluted in 10 mM PBS+1% BSA 1:1000 and 100 μl were added to each well and incubated for 1 hour at room temperature. The wells were then washed three times with 100 μl of PBS, pH 7.2. OPD substrate (Pierce chemical company, #34006) was prepared following the manufacturers instructions and 100 μl of prepared substrate was added to each well and the plates incubated at room temperature in the dark for 20-30 minutes. The reaction was stopped with the addition of 100 μl of 2M H₂SO₄, and the plates read on a plate reader at a wavelength of 490 nm.

[2] = biological target: T2, HMG1 B Box peptide amino acids 91-169; test: ELISA, HMG1 B Box peptide 91-169 coated at 10 ug/ml, antibody titrated, OD 450
Procedure: (§2) The plate was then blocked with 4% milk powder dissolved in PBS at 37° C. for 1 hour. The blocking solution was removed and replaced with human anti-HMG1 antibodies at various concentrations (see FIGS. 5A-B). […] HRP activity was detected with Sureblue HRP substrate (KPL). Plates were read at 450 nm using a Kinetic Microplate Reader (Molecular Devices). […] After washing and blocking with 1% BSA in PBS, the biotinylated peptides were individually added into the avidin coated wells and incubated for 30 min at room temperature. The serial diluted antibody G4, S16 and S6 at the initial concentration at 10 μg/ml were then transferred into the wells followed by adding mouse anti human IgG-HRP conjugate (Pierce). Detection was accomplished by adding 50 μl of tetramethylbenzidine (TMB) substrate (KPL) and the absorbance was read at 450 nm.

[3] = biological target: T5, recombinant HMG1 produced in E. coli as a calmodulin binding protein (CBP) fusion (human); test: cell-based or functional assay
T5 sequence (P09429 whole entry, the tested form may be a part): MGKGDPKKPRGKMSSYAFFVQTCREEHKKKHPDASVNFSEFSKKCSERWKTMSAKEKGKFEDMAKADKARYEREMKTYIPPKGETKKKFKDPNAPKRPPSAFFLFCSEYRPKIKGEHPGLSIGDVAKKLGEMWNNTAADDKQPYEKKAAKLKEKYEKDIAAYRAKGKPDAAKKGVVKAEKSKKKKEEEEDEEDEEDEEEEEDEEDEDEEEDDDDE

[4] = biological target: T3, HMG2 coated on ELISA plates; test: direct ELISA, HMGB2 coated at 5 ug/mL, OD 490
Procedure: as §1

[5] = biological target: T4, HMG1 B Box peptide amino acids 150-183; test: ELISA, HMG1 B Box peptide 150-183 coated at 10 ug/ml, antibody titrated, OD 450
Procedure: as §2

[6] = biological target: T5, recombinant HMG1 produced in E. coli as …; test: BIAcore 3000, mAb amine-coupled to CM5, HMG1 injected, steady-state model
Procedure: HMG1 Binding Affinity via BIAcore Analysis: All experiments were performed on a BIAcore 3000 instrument (BIAcore, Inc., Piscataway, N.J.). Briefly, each mAb was immobilized to a CM5 sensor chip using a standard amine coupling chemistry. Separately a reference (control) flow cell was also prepared. Two-fold, serial dilutions of HMG1 in instrument buffer were sequentially injected at a slow flow rate over the individual mAb and reference flow-cell surfaces. Following the binding and dissociation of HMG1, the mAbs surfaces were regenerated with a brief pulse of 1M NaCl-50 mM NaOH. At the end of each experiment, the binding curves were evaluated using a steady-state model available through the BIAevaluation software supplied by BIAcore, Inc. (Piscataway, N.J.).

[7] = biological target: T5, recombinant HMG1 produced in E. coli as …; test: ELISA, coated RAGE-Fc, rHMG1 preincubated with antibody
Procedure: HMG1 binding to RAGE-Ig by ELISA: 50 μl/well of RAGE-Fc fusion protein at 5 μg/ml in PBS was added to each well of an ELISA plate and incubated overnight at 4° C. The plate was then blocked with 200 μl of 5% milk at 37° C. for 1 hr and washed 3× with PBS/Tween. 50 μl/well of diluted HMGB1 solution. For dose curves, HMGB1 concentrations started at 4 ug/ml in PBS. For antibody blocking the HMGB1 was preincubated in another plate with human anti-HMG1 antibodies or buffer, then transferred to the RAGE-coated plate. The plates were then incubated at room temperature for 2 hours and washed 3×. To detect any HMG1 bound to the immobilized RAGE-Fc a mixture of biotinylated mouse anti-HMG1 mAbs (10D4, 4H11, 3E10 and 5C12) each at 1 ug/ml, total Ab: 4 ug/ml, were added to each well and the plate was incubated for 1 hour at room temperature. The plate was then washed and Strepavidin-HPR was added to each well and incubated 15 min. The plate was then washed 3× and blotted dry. 100 μl of TMB developing agent was added and the plate read at 650 nm. Values were calculated as percent of inhibition with HMG1 alone equal to 0% inhibition. The data in FIG. 9 and summarized in Table 1 represent the average of two separate experiments.

Binder | binding result [1] | binding result [2] | IC50 IL-1β [3] | IC50 IL-6 [3] | IC50 TNF-α [3] | binding result [4] | binding result [5] | Kd [6] | IC50 NO [3] | IC50 IL-12 [3] | percent inhibition of HMG1 binding to RAGE [7]
human anti-HMG1 antibody G9 (antibody, IgG1, V domains shown, full length IgG1 made from a human Fab phage clone) VH: EVQLLESGGGLVQPGGSLRLSCAASGFTFSSYDMFWVRQAPGKGLEWVSRISPSGGYTYYADSVKGRFTISRDNSKNTLYLQMNSLRAEDTAVYYCARLRYFDSRGYAFDIWGQGTMVTVSS VL: DIQMTQSPGTLSLSPGERATLSCRASQSVRSSYLAWYQQKPGQAPRLLIYGASTRATGIPDRFSGSGSGTDFTLTISRLEPEDFAVYYCQQYGTSRWTFGQGTKVEIK | binds | no binding (tested: 10 ug/ml (log 1.0)) | 0.211 µg/mL | 0.246 nM | 0.248 µg/mL | no binding (tested: 10 ug/mL (single concentration)) | no binding (tested: 10 ug/ml (log 1.0)) | 125 nM |  |  | 
human anti-HMG1 antibody G20 (antibody, IgG1, V domains shown, full length IgG1 made from a human Fab phage clone) VH: EVQLLESGGGLVQPGGSLRLSCAASGFTFSWYDMFWVRQAPGKGLEWVSWISPSGGYTKYADSVKGRFTISRDNSKNTLYLQMNSLRAEDTAMYYCARSGLDYYDSSGYLDAFDIWGQGTMVTVSS VL: DIQMTQSPSSVSASVGDRVTITCRASQDVSIWLAWYQQKPGKAPKLLIFGASRLQSGVPSRFSGSRSGADFTLTIDSVQPEDFASYYCQQADSFPLTFGGGTKVEIK | binds | no binding (tested: 10 ug/ml (log 1.0)) | 0.4 µg/mL | 0.652 nM | 0.598 µg/mL | no binding (tested: 10 ug/mL (single concentration)) | no binding (tested: 10 ug/ml (log 1.0)) | 114 nM | 20.4 µg/mL |  | 
human anti-HMG1 antibody G35 (antibody, IgG1, V domains shown, full length IgG1 made from a human Fab phage clone) VH: EVQLLESGGGLVQPGGSLRLSCAASGFTFSWYKMVWVRQAPGKGLEWVSSIVPSGGITIYADSVKGRFTISRDNSKNTLYLQMNSLRAEDTAVYYCARVQQWLGRPYFDYWGQGTLVTVSS VL: DIQMTQSPLSLPVTPGEPASISCRSSQSLLHGNGYNYLDWYLQRPGQSPQLLIYSGSNRASGVPDRFSGSGSGTDFTLKISRVEAEDVGVYYCMQSLQSRTFGQGTKVEIK | binds |  |  | 0.564 nM |  | no binding (tested: 10 ug/mL (single concentration)) | no binding (tested: 10 ug/ml (log 1.0)) | 242 nM |  |  | 
human anti-HMG1 antibody G12 (antibody, IgG1, V domains shown, full length IgG1 made from a human Fab phage clone) VH: EVQLLESGGGLVQPGGSLRLSCAASGFTFSYYMMTWVRQAPGKGLEWVSSISPSGGYTIYADSAKGRFTISRDNSKNTLYLQMNSLRAEDTAVYYCARALSTGSFWDYWGQGTLVTVSS VL: DIQMTQSPGTLSLSPGERATLSCRASESLTSTYVAWYQHKPGQAPRLLIHGGSTRATGIPVRFSGSGSGTDFTLTIATLEPEDFAVYYCQQYGSSPYTFGQGTKLEIK | binds | no binding (tested: 10 ug/ml (log 1.0)) | 5.91 µg/mL | 1.12 nM | 0.796 µg/mL | no binding (tested: 10 ug/mL (single concentration)) | no binding (tested: 10 ug/ml (log 1.0)) | 73 nM |  | 2.79 µg/mL | 
human anti-HMG1 antibody S14 (antibody, IgG1, V domains shown, full length IgG1 made from a human Fab phage clone) VH: EVQLLESGGGLVQPGGSLRLSCAASGFTFSWYETGWVRQAPGKGLEWVSGISPSGGYTQYADSVKGRFTISRDNSKNTLYLQMNSLRAEDTAVYYCARSGVGATKIFDYWGQGTLVTVSS VL: DIQMTQSPSSLSASVGDRVTIICRANERINTYLNWYQQKPGKAPKLLISGTSSLESGVPSRFSGSGSGTEFTLSISSLQPEDFASYYCQQSYSSPYTFGQGTNLEIR | binds | no binding (tested: 10 ug/ml (log 1.0)) | 0.0578 µg/mL | 0.191 nM | 0.0662 µg/mL | no binding (tested: 10 ug/mL (single concentration)) | no binding (tested: 10 ug/ml (log 1.0)) | 205 nM |  |  | 
human anti-HMG1 antibody S10 (antibody, IgG1, V domains shown, full length IgG1 made from a human Fab phage clone) VH: EVQLLESGGGLVQPGGSLRLSCAASGFTFSWYDMWWVRQAPGKGLEWVSWIVPSGGITAYADSVKGRFTISRDNSKNTLYLQMNSLRAEDTATYYCARGNYGPSPFDYWGQGTLVTVSS VL: DIQMTQSPGTLSLSPGERATLSCRATQSVRKNFLAWYQQKPGQAPRLLIYDASSRATGIPDRFSGSGSGTDFTLTISRLEPEDFAVYYCQQYGNSPIIFGQGTRLEIK | binds | no binding (tested: 10 ug/ml (log 1.0)) | 2.59 µg/mL | 0.324 nM | 0.875 µg/mL | no binding (tested: 10 ug/mL (single concentration)) | no binding (tested: 10 ug/ml (log 1.0)) | 54 nM |  | 1.13 µg/mL | ≥ 35%
human anti-HMG1 antibody G34 (antibody, IgG1, V domains shown, full length IgG1 made from a human Fab phage clone) VH: EVQLLESGGGLVQPGGSLRLSCAASGFTFSHYMMGWVRQAPGKGLEWVSRISPSGGGTVYADSVKGRFTISRDNSKNTLYLQMNSLRAEDTAVYYCARGGNWNYISYYYYYLDVWGKGTTVTVSS VL: DIQMTQSPSSLSASVGDRVAITCRASQSIDTYLNWYQQKPGKAPKLLIYAASKLEDGVPSRFSGSGTGTDFTLTIRSLQPEDFASYFCQQSYSSPGITFGPGTKVEIK | binds | no binding (tested: 10 ug/ml (log 1.0)) |  | 0.858 nM |  | no binding (tested: 10 ug/mL (single concentration)) | no binding (tested: 10 ug/ml (log 1.0)) | 67 nM |  |  | 

— patent US20110287023A1 (AstraZeneca / MedImmune, published 2011)
